Test results from patent EP4717706A1.

What was measured:
[1] = target: VLP2 (virus-like particles, capsid protein particles of AAV serotype 2) (AAV serotype 2 (AAV2)) (UniProt P03135); assay: ELISA on immobilised VLP2 (purified protein); A450 after 1:1 0.1 M glycine-NaOH pH 10.0, 15 min, 60.1°C divided by A450 untreated
[2] = target: VLP2 (virus-like particles, capsid protein particles of AAV serotype 2) (AAV serotype 2 (AAV2)) (UniProt P03135); assay: ELISA on immobilised VLP2 (culture supernatant); A450 after 1:1 0.1 M glycine-NaOH pH 10.0, 15 min, 51.3°C divided by A450 untreated
[3] = target: VLP2 (virus-like particles, capsid protein particles of AAV serotype 2) (AAV serotype 2 (AAV2)) (UniProt P03135); assay: ELISA on immobilised VLP2 (purified protein); A450 after 1:1 0.1 M glycine-NaOH pH 10.0, 15 min, 55.7°C divided by A450 untreated
[4] = target: VLP2 (virus-like particles, capsid protein particles of AAV serotype 2) (AAV serotype 2 (AAV2)) (UniProt P03135); assay: ELISA on immobilised VLP2 (purified protein); A450 after 1:1 0.1 M glycine-NaOH pH 10.0, 15 min, 66.1°C divided by A450 untreated
[5] = target: VLP2 (virus-like particles, capsid protein particles of AAV serotype 2) (AAV serotype 2 (AAV2)) (UniProt P03135); assay: ELISA on immobilised VLP2 (purified protein); A450 after 1:1 0.1 M glycine-NaOH pH 10.0, 15 min, 70°C divided by A450 untreated

Chain of UniProt P03135 (P03135 whole entry): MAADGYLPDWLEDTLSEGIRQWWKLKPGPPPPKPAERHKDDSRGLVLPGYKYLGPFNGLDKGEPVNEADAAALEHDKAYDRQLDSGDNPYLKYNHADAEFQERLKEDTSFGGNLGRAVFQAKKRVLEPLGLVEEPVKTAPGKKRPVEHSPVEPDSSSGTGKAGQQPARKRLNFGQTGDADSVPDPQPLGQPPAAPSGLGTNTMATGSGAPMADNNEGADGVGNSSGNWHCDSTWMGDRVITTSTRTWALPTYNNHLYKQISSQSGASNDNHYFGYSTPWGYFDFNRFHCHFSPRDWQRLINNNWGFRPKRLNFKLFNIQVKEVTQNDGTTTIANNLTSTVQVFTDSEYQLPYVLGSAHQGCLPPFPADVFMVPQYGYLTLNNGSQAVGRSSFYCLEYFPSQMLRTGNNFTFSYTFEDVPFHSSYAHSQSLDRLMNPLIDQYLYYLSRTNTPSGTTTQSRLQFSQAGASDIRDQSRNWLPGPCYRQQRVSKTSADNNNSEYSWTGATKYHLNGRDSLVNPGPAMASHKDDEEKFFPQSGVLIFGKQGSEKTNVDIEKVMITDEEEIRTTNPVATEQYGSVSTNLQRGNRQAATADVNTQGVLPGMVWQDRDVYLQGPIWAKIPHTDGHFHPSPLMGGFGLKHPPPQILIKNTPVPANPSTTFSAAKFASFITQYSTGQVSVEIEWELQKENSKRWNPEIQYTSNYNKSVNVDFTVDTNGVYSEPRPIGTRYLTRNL

B1: AAV-binding protein AVR8g (receptor)
chain: MGSAGESDQITLPKNEVQLNAYVLQEPPKGETCTYDWQLITHPRDYSGEMEGEHSQILKLSNLTPGLYEFKVIVEGQNAHSEGYVNVTVEPEPRKNRPPIAIVSPQFQEISLPTTSTVIDGSQSTDDDKIVQYHWEELKGPLREEKISEDTAILKLSKLVPGNYTFRLTVVDSDGATDSTTANLTVNKAVDHHHHHH
**Q.** What does the source list for B1?
**A.** Remaining activity [%] [1]: 4.18%; Remaining activity [%] [2]: 8.8%; Remaining activity [%] [3]: 0.837%; Remaining activity [%] [4]: 0%; Remaining activity [%] [5]: 3.77%
